Data set [1] deals with the molecule itself. As to the kind of experiment: precipitation after dialysis from GHCl (self-assembly test); affinity purified protein dissolved in 5 M GHCl at 1 mg/ml, dialysed against PBS for two hours at 4°C, centrifuged 16,000 x g 30 min, precipitate checked by SDS-PAGE.
Data set [2] concerns the molecule itself. The data set can be described thus: transmission electron microscopy of self-assembly products (negative stain); 1 mg purified, lyophilised recombinant protein in 1 ml 5 M GHCl, 50 mM Tris-HCl pH 7.2, dialysed against 10 mM CaCl2 in distilled water for 18 h; negative stain with 2,5% uranyl acetate.
Data set [3] deals with the molecule itself. As to the kind of experiment: transmission electron microscopy of self-assembly products (negative stain); SlpA extracted from L. brevis cells with 2 M GHCl, 1 mg/ml, dialysed against water with 5 mM CaCl2 and then water at +4°C; pelleted self-assembly products in 25 mM Tris-HCl pH 8.0.

B1: rSlpA_(179-435) (domain or fragment, Lactobacillus brevis ATCC 8287, UniProt Q05044 209-465, looked up)
chain: SGISGWIYAGKGFSTTATGTQVLGGLSTDKSVTATNDNSVKIVYRTTDGTQVGSNTWVTSTDGTKAGSKVSDKAADQTALEAYINANKPSGYTVTNPNAADATYGNTVYATVSQAATSKVALKVSGTPVTTALTTADANDKVAANDTTANGSSVAGSTVYAAGTKLAQLTTDLTGEKGQVVTLTAIDTDLEDATFTGTTTYYSDLGKAYHYTYTYNKDSAASSNASTQFGSNVTGTLTATLVMGKSTATANGTTWFN
notes: numbers count on: the mature protein; also called rSlpA C-terminal domain; source: E. coli BL21(DE3), purified (His Trap HP in 4 M GHCl or 6 M urea)
For B1, the binding result in data set [1] was “binds”.

B2: full length recombinant SlpA (SlpA 1-435), S-layer protein of Lactobacillus brevis ATCC 8287 (natural protein, UniProt Q05044 31-465, looked up)
chain: KSYATAGAYSTLKTDAATRNVEATGTNALYTKPGTVKGAKVVASKATMAKLASSKKSADYFRAYGVKTTNRGSVYYRVVTMDGKYRGYVYGGKSDTAFAGGIKSAETTTKADMPARTTGFYLTDTSKNTLWTAPKYTQYKASKVSLYGVAKDTKFTVDQAATKTREGSLYYHVTATNGSGISGWIYAGKGFSTTATGTQVLGGLSTDKSVTATNDNSVKIVYRTTDGTQVGSNTWVTSTDGTKAGSKVSDKAADQTALEAYINANKPSGYTVTNPNAADATYGNTVYATVSQAATSKVALKVSGTPVTTALTTADANDKVAANDTTANGSSVAGSTVYAAGTKLAQLTTDLTGEKGQVVTLTAIDTDLEDATFTGTTTYYSDLGKAYHYTYTYNKDSAASSNASTQFGSNVTGTLTATLVMGKSTATANGTTWFN
notes: numbers count on: the mature protein; Two full length constructs were made: pKTH5198 (C-terminal linker-His6) and pKTH5199 (N-terminal His6-linker); no cleavage is mentioned; also called rSlpA; nontruncated rSlpA; source: E. coli BL21(DE3), purified (His Trap HP in 4 M GHCl or 6 M urea)
Consider B2, for which the binding result in data set [2] is given as “binds”.

B3: wild type SlpA isolated from L. brevis ATCC 8287 cells (natural protein, Lactobacillus brevis ATCC 8287, UniProt Q05044 31-465, looked up)
chain: KSYATAGAYSTLKTDAATRNVEATGTNALYTKPGTVKGAKVVASKATMAKLASSKKSADYFRAYGVKTTNRGSVYYRVVTMDGKYRGYVYGGKSDTAFAGGIKSAETTTKADMPARTTGFYLTDTSKNTLWTAPKYTQYKASKVSLYGVAKDTKFTVDQAATKTREGSLYYHVTATNGSGISGWIYAGKGFSTTATGTQVLGGLSTDKSVTATNDNSVKIVYRTTDGTQVGSNTWVTSTDGTKAGSKVSDKAADQTALEAYINANKPSGYTVTNPNAADATYGNTVYATVSQAATSKVALKVSGTPVTTALTTADANDKVAANDTTANGSSVAGSTVYAAGTKLAQLTTDLTGEKGQVVTLTAIDTDLEDATFTGTTTYYSDLGKAYHYTYTYNKDSAASSNASTQFGSNVTGTLTATLVMGKSTATANGTTWFN
notes: numbers count on: the mature protein; source: extracted from L. brevis ATCC 8287 cells with 2 M GHCl, dialysed
Turning to B3, the binding result in data set [3] is “binds”.

B4: rSlpA_(146-435) (domain or fragment, Lactobacillus brevis ATCC 8287, UniProt Q05044 176-465, looked up)
chain: LYGVAKDTKFTVDQAATKTREGSLYYHVTATNGSGISGWIYAGKGFSTTATGTQVLGGLSTDKSVTATNDNSVKIVYRTTDGTQVGSNTWVTSTDGTKAGSKVSDKAADQTALEAYINANKPSGYTVTNPNAADATYGNTVYATVSQAATSKVALKVSGTPVTTALTTADANDKVAANDTTANGSSVAGSTVYAAGTKLAQLTTDLTGEKGQVVTLTAIDTDLEDATFTGTTTYYSDLGKAYHYTYTYNKDSAASSNASTQFGSNVTGTLTATLVMGKSTATANGTTWFN
notes: numbers count on: the mature protein; Cloned through an NcoI site; the primer may add residues at the N-terminus (surmise from primer 1602); source: E. coli BL21(DE3), purified (His Trap HP in 4 M GHCl or 6 M urea)
In the case of B4, the binding result in data set [1] was “binds”.

(Values after article PMC2571106 (BMC Microbiology, 2008).)
